± gives the uncertainty stated by the source.

The data set in a line: amyloid nucleation score (Sup35N fusion, yeast selection) (log enrichment); library NNK1; higher = more nucleation; inactive = no reads after selection. In a few lines: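 Sup35N was fused to peptides of 20 random codons and expressed in psi-negative yeast, which were induced with 100 μM copper sulfate for 24 hours and then grown on medium lacking adenine and uracil for 7 days at 30°C. Plasmid inserts from input and output were sequenced on Illumina. The nucleation score is the DiMSum log enrichment of output over input reads, centred on the mode score of non-aggregating sequences. Sequences with under 100 input reads were left out, and random libraries had three technical output replicates.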

In the case of HDTDAKVQILNA, the amyloid nucleation score was determined as 0.626 ± 0.69.
With VYVFLADNGSDELLMLVLTG, the amyloid nucleation score was determined as 0.12 ± 0.28.
The result for ELRYCEFTCSISWA reads 0.744 ± 0.36; that for KLVLLGNK, 0.134 ± 0.5.
GMAVNGYHSLRGKVLEDVGN returned an amyloid nucleation score of -0.289 ± 0.79.
Regarding TFTFVFW, the amyloid nucleation score is 3.46 ± 0.13.
The result for MLEVKPLTCMVSPIYDFMPG reads -0.134 ± 0.41; that for HTPLNRC, -0.469 ± 1.4.
VYASGWAQISVTGGTWLRGD yielded an amyloid nucleation score of 0.131 ± 0.42.
Turning to MILHLDVSISIVLD, the amyloid nucleation score was determined as 1.58 ± 0.15.
The result for FFRIACL reads -0.704 ± 0.45; that for DRYYAGF, 0.464 ± 0.55; that for PKMPGMVYDTPN, -1.49 ± 2.4.
The result for SFSIN reads 0.238 ± 0.29.
The result for VTFRIVRVLPMEPVRTRAGD reads -0.972 ± 0.54.
In turn, HCYGIVEFSSSCCEFFRHGV registered an amyloid nucleation score of 6.36 ± 0.092.
In turn, RIMLFFCCSSKVFDFPVLLM gave an amyloid nucleation score of 6.4 ± 0.064.
The substance CSAQTGVGSFPFGNIPVVSV showed an amyloid nucleation score of 0.789 ± 0.56.
The result for QVSANSY reads 3.59 ± 0.082.
Turning to ARCCWRG, the amyloid nucleation score was -0.849 ± 1.1.
For the substance SMHHGFYCDVWLGGVILRCK, the amyloid nucleation score was determined as 0.047 ± 0.56.
The result for VAHSLYLNIYGFQLMS reads 7.454 ± 0.06.
VFFSKI came in with an amyloid nucleation score of 1.08 ± 0.53.
The result for HVGRHTTTGHAGFCNCGNPN reads 3.46 ± 0.17; that for SVGMVLFLGCGLLLFRFLCG, -0.359 ± 1.2.
Substance YFKNTGEVRSIRLSGHHGWG yielded an amyloid nucleation score of 0.048 ± 0.86.
On to LVMFSNLCSWFLLF, for which the amyloid nucleation score is 0.966 ± 0.62.
The result for SNVHCPWKL reads -1.74 ± 2.7.
With MEFISFTWLKYSYMYSDVFS, the amyloid nucleation score entry is “inactive”.
As to LCLSSWGLTLSLLIDCIYNR, the amyloid nucleation score is -0.53 ± 0.48.
The result for FPNVDNNV reads “inactive”; that for LVVFATSVGSGGFKVWGHPG, 0.041 ± 0.45; that for GKKTRRLYVKWSSSFLNWMK, 0.28 ± 0.85.
The result for WCDGYVMFLDTNCIRINHIL reads -0.162 ± 0.24; that for CWLMGMSGPPFDRVWGVVIR, -0.086 ± 1.2; that for LCRFSAEDHCYADCTVDHCC, -0.244 ± 0.66.
The result for TFLNFWPQFCMEFY reads 5.98 ± 0.06; that for YLILYPRASFKYAIILWSCF, -0.749 ± 0.42; that for ILSRKGLLVQRKRVNVVVIP, 0.437 ± 0.32.
On to TSYTNAVFESNFA, for which the amyloid nucleation score was -0.426 ± 0.3.
The result for LHERRYSLLSLESLIHNKSC reads -0.752 ± 0.61; that for FASILVFQNGSIATCAINWV, 0.694 ± 0.84; that for TIVFMRAHIFW, 0.788 ± 0.25.
Substance KDHTWWALCFYIKIFELKVR had an amyloid nucleation score of 1.39 ± 0.73.
For the substance SETQNRLS, the amyloid nucleation score is -0.024 ± 0.33.
For CVANLPGSKVLVWNTKFK, the amyloid nucleation score is 5.38 ± 0.056.
The substance NRSYNN returned an amyloid nucleation score of -0.243 ± 0.29.
The result for RMHYIG reads 0.106 ± 0.43; that for FFSPSNKNYKR, -0.215 ± 0.35.
LIHVCQYCVRPVNGGSVNLR returned an amyloid nucleation score of 0.264 ± 0.44.
The result for LSGVLGSVAFAYIRPRTGFG reads -0.143 ± 1.2; that for DCAKTANDSDVLFFDTSGAR, 0.504 ± 0.4.
For CELPGLGVLLVGGKPMEWLN, the amyloid nucleation score result was “inactive”.
With CREVAKFGKLSNRQSRGCAI, the amyloid nucleation score was -0.951 ± 1.4.
The result for DTGLGVCWSAKLGYCVWGSL reads 6.61 ± 0.071.
MITIRVLEQDHLSLSLALSY came in with an amyloid nucleation score of -0.597 ± 0.57.
Substance ELGLSINFQIANFAACQGYI registered an amyloid nucleation score of 1.99 ± 0.24.
FGLYYLSNSEFMYVDRFHLG gave an amyloid nucleation score of -0.575 ± 0.38.

These data come from the supplement of paper PMC12042874.
